In patent publication US20220204611A1 (Amgen, published 2022):

How the values were obtained:
[1] = target: T1, recombinant soluble human TREM2 protein (human TREM2 ECD-FlagHis) (human, UniProt Q9NZC2 19-174); experiment: Octet BLI binning; competitor: load Ab 4C5
T1 sequence: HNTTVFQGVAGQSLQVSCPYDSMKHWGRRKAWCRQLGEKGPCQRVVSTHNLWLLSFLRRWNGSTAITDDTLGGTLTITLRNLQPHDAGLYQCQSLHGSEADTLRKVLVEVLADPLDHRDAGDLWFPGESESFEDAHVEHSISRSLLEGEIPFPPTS
Experimental: (§1) Each of sixteen different anti-TREM2 antibodies produced from hybridomas were quantitated and loaded onto one of the anti-human Fc sensors at 5 μg/mL for 2 minutes (“Load Antibody”). The sensor was then blocked with 100 μg/mL of an irrelevant human IgG2 antibody for 5 minutes. […] Next, each of the sixteen different anti-TREM2 antibodies (“Sandwich Antibody”) was added to the sensor at 5 μg/mL and allowed to bind for 5 minutes. All assay buffers contained 10 mM Tris (pH 7.6), 0.1% Triton X-100, 150 mM NaCl, 1 mM CaCl₂, and 1 mg/mL BSA. The assay was conducted at 25° C. Experimental kinetic results were fit to a 1:1 binding model.
(§2) However, if addition of the sandwich antibody produces a binding event, then the sandwich antibody binds to a different epitope on human TREM2 than the load antibody and the two antibodies are categorized into different epitope bins.

[2] = target: T2, soluble human TREM2 protein (TREM2 ECD-huIgG1 Fc fusion protein) (human, UniProt Q9NZC2 19-174, biotinylated); experiment: ELISA, hybridoma supernatant on captured biotinylated TREM2 ECD-Fc
T2 construct: also called biotinylated soluble human TREM2 protein
T2 sequence: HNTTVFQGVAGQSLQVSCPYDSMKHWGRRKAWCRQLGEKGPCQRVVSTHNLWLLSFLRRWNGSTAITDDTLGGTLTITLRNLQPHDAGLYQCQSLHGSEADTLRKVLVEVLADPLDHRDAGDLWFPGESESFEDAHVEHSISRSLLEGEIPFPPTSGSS

[3] = target: T1, recombinant soluble human TREM2 protein …; experiment: Octet BLI binning; competitor: load Ab 25F12
Experimental: as §1, §2

[4] = target: T1, recombinant soluble human TREM2 protein …; experiment: Octet BLI binning; competitor: load Ab 4G10
Experimental: as §1, §2

[5] = target: T1, recombinant soluble human TREM2 protein …; experiment: Octet BLI binning; competitor: load Ab 32E3
Experimental: as §1, §2

[6] = target: T1, recombinant soluble human TREM2 protein …; experiment: Octet BLI binning; competitor: load Ab 24G6
Experimental: as §1, §2

[7] = target: T1, recombinant soluble human TREM2 protein …; experiment: Octet BLI binning; competitor: load Ab 10E3
Experimental: as §1, §2

[8] = target: T1, recombinant soluble human TREM2 protein …; experiment: Octet BLI, antibody on anti-human Fc sensor, 25 C
Experimental: (§3) To quantitate the binding affinity of agonist antibodies for human TREM2, association and dissociation rate constants as well as the equilibrium dissociation constant were determined using anti-human Fc (Kinetic) sensors on an Octet® HTX instrument (Pall ForteBio). Agonist anti-TREM2 antibodies were made up in DMEM null media, 250 μL at 10 μg/mL. The, 250 uL of assay buffer (10 mM Tris (pH 7.6), 0.1% Triton X-100, 150 mM NaCl, 1mM CaCl₂, and 1 mg/mL BSA) was added to the antibody solutions to a final volume of 500 μL and final antibody concentration of 5 μg/mL. The anti-human Fc sensor was pre-incubated in 200 μL of the assay buffer for a minimum of 10 minutes. The sensor was then regenerated for 5 seconds in 10 mM glycine pH 1.5. Test agonist anti-TREM2 antibodies were loaded onto the sensor for 2 minutes, and baseline measurements were taken for 2 minutes. […] The recombinant TREM2 proteins were allowed to associate with the antibody-loaded sensor for 10 minutes, and then dissociation was measured for 10 minutes. The assay was conducted at 25° C. Experimental kinetic results were globally fit to a 1:1 binding model in order to determine the association and dissociation rate constants as well as the equilibrium dissociation constant.

[9] = target: T3, recombinant soluble cynomolgus TREM2 protein (cynomolgus TREM2 extracellular domain coupled to a Flag/His tag) (cynomolgus, UniProt A0A2K5UY34 49-204); experiment: Octet BLI, antibody on anti-human Fc sensor, 25 C
T3 construct: extracellular domain; also called Cyno TREM2
T3 sequence: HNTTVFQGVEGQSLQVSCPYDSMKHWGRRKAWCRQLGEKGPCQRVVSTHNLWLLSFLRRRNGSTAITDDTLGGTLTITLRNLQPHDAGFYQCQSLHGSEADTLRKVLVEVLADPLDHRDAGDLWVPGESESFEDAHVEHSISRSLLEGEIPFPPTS
Experimental: as §3

[10] = target: T4, human TREM2 on cells (human, UniProt Q9NZC2 19-230); experiment: cell-based or functional assay
T4 sequence: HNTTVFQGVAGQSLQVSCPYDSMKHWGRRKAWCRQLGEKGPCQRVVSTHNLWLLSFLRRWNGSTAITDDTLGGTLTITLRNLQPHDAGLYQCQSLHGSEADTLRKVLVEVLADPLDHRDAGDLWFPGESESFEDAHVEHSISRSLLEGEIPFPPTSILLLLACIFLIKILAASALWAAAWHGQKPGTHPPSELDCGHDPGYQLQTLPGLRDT

[11] = target: T1, recombinant soluble human TREM2 protein …; experiment: Octet BLI binning; competitor: load Ab 26F2
Experimental: as §1, §2

[12] = target: T4, human TREM2 on cells; experiment: cell-based or functional assay; remark: listed apart in the source

| Binder | sandwich binding signal [1] | OD 450 [2] | sandwich binding signal [3] | sandwich binding signal [4] | sandwich binding signal [5] | sandwich binding signal [6] | sandwich binding signal [7] | Kd [8] | Kd [9] | Emax (% maximum activation compared to RnD antibody) [10] | pSyk EC50, differentiated THP-1 cells [10] | sandwich binding signal [11] | pSyk EC50 [12] |
| --- | --- | --- | --- | --- | --- | --- | --- | --- | --- | --- | --- | --- | --- |
| 4C5 (antibody, V domains shown, human IgG2 from hybridoma) VH: EVQLVQSGAEVKKPGESLKISCKGSGHSFTNYWIAWVRQMPGKGLEWMGIIYPGDSDTRYSPSFQGQVTISADKSISTAYLQWSSLKASDTAVYFCARQRTFYYDSSGYFDYWGQGTLVTVSS VL: DIQMTQSPSSVSASVGDRVTITCRASQGISNWLAWYQQKPGKAPKLLIYAASSLQVGVPLRFSGSGSGTDFTLTISSLQPEDFATYYCQQADSFPRNFGQGTKLEIK | -0.014 | 3.62 OD450 | 0.265 | -0.011 | -0.01 | 0.268 | -0.005 | 3.1 nM | 3.6 nM | 265% | 1.72 nM | 0.31 | 0.18 nM |
| 4G10 (antibody, human IgG2, V domains shown, human IgG2 from hybridoma) VH: EVQLVQSGAEVKKPGESLKISCKGSGYSFPSYWIAWVRQMPGKGLEWMGIIYPGDSDTRYSPSFQGQVTISADKSISTAFLKWSSLKASDTAMYFCARQGIEVTGTGGLDVWGQGTTVTVSS VL: DIQMTQSPSSLSASVGDRVTITCRASQGIRNDLGWYQQKPGNAPKRLIYAASSLPSGVPSRFSGSGSGPEFTLTISSLQPEDFATYYCLQHNSYPWTFGQGTKVEIT | -0.018 | 3.17 OD450 | 0.199 | -0.026 | -0.029 | 0.184 | -0.019 | 3.3 nM | 1.7 nM | 236% | 0.579 nM | 0.18 | 0.47 nM |
